The values that follow come from patent publication US20200165349A1 (Genmab, published 2020).

The target of experiment [1] is T1, Human CD137 (human, UniProt Q07011 24-255).
T1 construct: also called hCD137 wt; 4-1BB
Kind of experiment: flow cytometry on FreeStyle HEK293 cells expressing CD137 (alanine scanning), 3 µg/mL A488-labeled antibody. Background: In flow cytometry, cells or beads pass a laser one at a time.
Procedure: The wild type CD137 and alanine mutants were expressed individually in FreeStyle HEK293 cells according to the manufacturer's instructions (Thermo Scientific). One day post transfection, the cells were harvested. […] Cells were incubated at room temperature for 30 min. Subsequently, cells were washed twice by centrifugation using 150-200 μL FACS buffer. Cells were suspended in 30 μL FACS buffer and stored at 4° C. until analysis by flow cytometry using an iQue screener.

Experiment [2] addresses T1, Human CD137. Put plainly: cell-based or functional assay.
For a further experiment, the target named is T2, Human PD-L1 (human, UniProt Q9NZQ7 19-290).
T2 construct: Amino acids 1-18 are stated to be a predicted signal peptide; also called CD274; B7H1
Kind of experiment: flow cytometry on MDA-MB-231 tumor cells.

Experiment [3] has as its target T1, Human CD137. Put plainly: cell-based or functional assay. The source holds these as a separate data set.

T2 sequence (Q9NZQ7 19-290): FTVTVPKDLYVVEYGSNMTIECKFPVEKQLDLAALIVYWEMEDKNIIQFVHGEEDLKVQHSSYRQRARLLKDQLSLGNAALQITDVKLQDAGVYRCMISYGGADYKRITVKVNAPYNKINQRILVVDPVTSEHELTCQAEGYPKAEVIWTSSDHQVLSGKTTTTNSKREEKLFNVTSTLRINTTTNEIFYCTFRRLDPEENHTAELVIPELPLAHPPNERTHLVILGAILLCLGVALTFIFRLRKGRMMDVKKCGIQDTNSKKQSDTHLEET
Procedure for Human PD-L1: After washing twice in FACS buffer, cells were incubated with secondary antibody at 4° C. for 30 min. […] Next, cells were washed twice in FACS buffer, re-suspended in 20 μL FACS buffer and analyzed on an iQue screener (Intellicyt Corporation, USA). Binding curves were analyzed using non-linear regression (sigmoidal dose-response with variable slope) using GraphPad Prism V75.04 software (GraphPad Software, San Diego, Calif., USA).

B1: CD137-005-FEAR-A488 (antibody, V domains shown)
VH: QSVEESGGRLVTPGTPLTLTCTASGFTISDFHVTWVRQAPGKGLEWIGTIITSASTTAYATWARGRFTISKSSTTVNLKIVSPTTEDTATYFCARSTYTDTSGYYFDFWGQGTLVTVSS
VL: AQVLTQTASPVSAAVGGTVIINCQSSQSIYNGNRLSWYQQKPGQPPKLLIYSASTLASGVSSRFKGSGSGTQFTLAISDVQSDDAATYYCLGSYDCDSADCFAFGGGTEVVVER
notes: Conjugated with Alexa Fluor 488
On to B1, for which the binding result with Human CD137 [1] is recorded as “binds”.

B2: PD-L1-547-FEAL×CD137-009-HC7LC2-FEAR (bispecific antibody, human IgG1, kappa, lambda)
heavy 1: EVQLLEPGGGLVQPGGSLRLSCEASGSTFSTYAMSWVRQAPGKGLEWVSGFSGSGGFTFYADSVRGRFTISRDSSKNTLFLQMSSLRAEDTAVYYCAIPARGYNYGSFQHWGQGTLVTVSSASTKGPSVFPLAPSSKSTSGGTAALGCLVKDYFPEPVTVSWNSGALTSGVHTFPAVLQSSGLYSLSSVVTVPSSSLGTQTYICNVNHKPSNTKVDKRVEPKSCDKTHTCPPCPAPEFEGGPSVFLFPPKPKDTLMISRTPEVTCVVVAVSHEDPEVKFNWYVDGVEVHNAKTKPREEQYNSTYRVVSVLTVLHQDWLNGKEYKCKVSNKALPAPIEKTISKAKGQPREPQVYTLPPSREEMTKNQVSLTCLVKGFYPSDIAVEWESNGQPENNYKTTPPVLDSDGSFLLYSKLTVDKSRWQQGNVFSCSVMHEALHNHYTQKSLSLSPGK
light 1: SYVLTQPPSVSVAPGQTARITCGGNNIGSKSVHWYQQKPGQAPVLVVYDDNDRPSGLPERFSGSNSGNTATLTISRVEAGDEADYYCQVWDSSSDHVVFGGGTKLTVLGQPKAAPSVTLFPPSSEELQANKATLVCLISDFYPGAVTVAWKADSSPVKAGVETTTPSKQSNNKYAASSYLSLTPEQWKSHRSYSCQVTHEGSTVEKTVAPTECS
heavy 2: EVQLVESGGGLVQPGRSLRLSCTASGFSLNDYWMSWVRQAPGKGLEWVGYIDVGGSLYYAASVKGRFTISRDDSKSIAYLQMNSLKTEDTAVYYCARGGLTYGFDLWGQGTLVTVSSASTKGPSVFPLAPSSKSTSGGTAALGCLVKDYFPEPVTVSWNSGALTSGVHTFPAVLQSSGLYSLSSVVTVPSSSLGTQTYICNVNHKPSNTKVDKRVEPKSCDKTHTCPPCPAPEFEGGPSVFLFPPKPKDTLMISRTPEVTCVVVAVSHEDPEVKFNWYVDGVEVHNAKTKPREEQYNSTYRVVSVLTVLHQDWLNGKEYKCKVSNKALPAPIEKTISKAKGQPREPQVYTLPPSREEMTKNQVSLTCLVKGFYPSDIAVEWESNGQPENNYKTTPPVLDSDGSFFLYSRLTVDKSRWQQGNVFSCSVMHEALHNHYTQKSLSLSPGK
light 2: DIVMTQSPSSLSASVGDRVTITCQASEDISSYLAWYQQKPGKAPKRLIYGASDLASGVPSRFSASGSGTDYTFTISSLQPEDIATYYCHYYATISGLGVAFGGGTKVEIKRTVAAPSVFIFPPSDEQLKSGTASVVCLLNNFYPREAKVQWKVDNALQSGNSQESVTEQDSKDSTYSLSSTLTLSKADYEKHKVYACEVTHQGLSSPVTKSFNRGEC
On to B2, for which, in the experiment with Human CD137 [2], the “EC50 value, CD8+ T-cell expansion, donor 1, 0.03 µg/ml anti-CD3” value turned out to be 0.0122 µg/mL and the “EC50 value, CD8+ T-cell expansion, donor 2, 0.09 µg/ml anti-CD3” value turned out to be 6.89 ng/mL.

B3: b12-FEAL×PD-L1-547-FEAR (bispecific antibody, not shown: large carriers)
heavy 1: QVQLVQSGAEVKKPGASVKVSCQASGYRFSNFVIHWVRQAPGQRFEWMGWINPYNGNKEFSAKFQDRVTFTADTSANTAYMELRSLRSADTAVYYCARVGPYSWDDSPQDNYYMDVWGKGTTVIVSSASTKGPSVFPLAPSSKSTSGGTAALGCLVKDYFPEPVTVSWNSGALTSGVHTFPAVLQSSGLYSLSSVVTVPSSSLGTQTYICNVNHKPSNTKVDKRVEPKSCDKTHTCPPCPAPEFEGGPSVFLFPPKPKDTLMISRTPEVTCVVVAVSHEDPEVKFNWYVDGVEVHNAKTKPREEQYNSTYRVVSVLTVLHQDWLNGKEYKCKVSNKALPAPIEKTISKAKGQPREPQVYTLPPSREEMTKNQVSLTCLVKGFYPSDIAVEWESNGQPENNYKTTPPVLDSDGSFLLYSKLTVDKSRWQQGNVFSCSVMHEALHNHYTQKSLSLSPGK
light 1: EIVLTQSPGTLSLSPGERATFSCRSSHSIRSRRVAWYQHKPGQAPRLVIHGVSNRASGISDRFSGSGSGTDFTLTITRVEPEDFALYYCQVYGASSYTFGQGTKLERK
heavy 2: EVQLLEPGGGLVQPGGSLRLSCEASGSTFSTYAMSWVRQAPGKGLEWVSGFSGSGGFTFYADSVRGRFTISRDSSKNTLFLQMSSLRAEDTAVYYCAIPARGYNYGSFQHWGQGTLVTVSSASTKGPSVFPLAPSSKSTSGGTAALGCLVKDYFPEPVTVSWNSGALTSGVHTFPAVLQSSGLYSLSSVVTVPSSSLGTQTYICNVNHKPSNTKVDKRVEPKSCDKTHTCPPCPAPEFEGGPSVFLFPPKPKDTLMISRTPEVTCVVVAVSHEDPEVKFNWYVDGVEVHNAKTKPREEQYNSTYRVVSVLTVLHQDWLNGKEYKCKVSNKALPAPIEKTISKAKGQPREPQVYTLPPSREEMTKNQVSLTCLVKGFYPSDIAVEWESNGQPENNYKTTPPVLDSDGSFFLYSRLTVDKSRWQQGNVFSCSVMHEALHNHYTQKSLSLSPGK
light 2: SYVLTQPPSVSVAPGQTARITCGGNNIGSKSVHWYQQKPGQAPVLVVYDDNDRPSGLPERFSGSNSGNTATLTISRVEAGDEADYYCQVWDSSSDHVVFGGGTKLTVLGQPKAAPSVTLFPPSSEELQANKATLVCLISDFYPGAVTVAWKADSSPVKAGVETTTPSKQSNNKYAASSYLSLTPEQWKSHRSYSCQVTHEGSTVEKTVAPTECS
notes: also called monovalent PD-L1 antibody; monovalent PD-L1-control antibody
As for B3, the binding result with Human PD-L1 was “binds”.

B4: CD137-009-FEAL×PD-L1-547-FEAR (bispecific antibody, human IgG1, kappa, lambda)
heavy 1: QSLEESGGRLVTPGTPLTLTCTVSGFSLNDYWMSWVRQAPGKGLEWIGYIDVGGSLYYASWAKGRFTISRTSTTVDLKMTSLTTEDTATYFCARGGLTYGFDLWGPGTLVTVSSASTKGPSVFPLAPSSKSTSGGTAALGCLVKDYFPEPVTVSWNSGALTSGVHTFPAVLQSSGLYSLSSVVTVPSSSLGTQTYICNVNHKPSNTKVDKRVEPKSCDKTHTCPPCPAPEFEGGPSVFLFPPKPKDTLMISRTPEVTCVVVAVSHEDPEVKFNWYVDGVEVHNAKTKPREEQYNSTYRVVSVLTVLHQDWLNGKEYKCKVSNKALPAPIEKTISKAKGQPREPQVYTLPPSREEMTKNQVSLTCLVKGFYPSDIAVEWESNGQPENNYKTTPPVLDSDGSFLLYSKLTVDKSRWQQGNVFSCSVMHEALHNHYTQKSLSLSPGK
light 1: DIVMTQTPASVSEPVGGTVTINCQASEDISSYLAWYQQKPGQRPKRLIYGASDLASGVPSRFSASGSGTEYALTISDLESADAATYYCHYYATISGLGVAFGGGTEVVVKRTVAAPSVFIFPPSDEQLKSGTASVVCLLNNFYPREAKVQWKVDNALQSGNSQESVTEQDSKDSTYSLSSTLTLSKADYEKHKVYACEVTHQGLSSPVTKSFNRGEC
heavy 2: EVQLLEPGGGLVQPGGSLRLSCEASGSTFSTYAMSWVRQAPGKGLEWVSGFSGSGGFTFYADSVRGRFTISRDSSKNTLFLQMSSLRAEDTAVYYCAIPARGYNYGSFQHWGQGTLVTVSSASTKGPSVFPLAPSSKSTSGGTAALGCLVKDYFPEPVTVSWNSGALTSGVHTFPAVLQSSGLYSLSSVVTVPSSSLGTQTYICNVNHKPSNTKVDKRVEPKSCDKTHTCPPCPAPEFEGGPSVFLFPPKPKDTLMISRTPEVTCVVVAVSHEDPEVKFNWYVDGVEVHNAKTKPREEQYNSTYRVVSVLTVLHQDWLNGKEYKCKVSNKALPAPIEKTISKAKGQPREPQVYTLPPSREEMTKNQVSLTCLVKGFYPSDIAVEWESNGQPENNYKTTPPVLDSDGSFFLYSRLTVDKSRWQQGNVFSCSVMHEALHNHYTQKSLSLSPGK
light 2: SYVLTQPPSVSVAPGQTARITCGGNNIGSKSVHWYQQKPGQAPVLVVYDDNDRPSGLPERFSGSNSGNTATLTISRVEAGDEADYYCQVWDSSSDHVVFGGGTKLTVLGQPKAAPSVTLFPPSSEELQANKATLVCLISDFYPGAVTVAWKADSSPVKAGVETTTPSKQSNNKYAASSYLSLTPEQWKSHRSYSCQVTHEGSTVEKTVAPTECS
On to B4, for which, in the experiment with Human CD137 [3], the “EC50 of the induction of antigen-specific T cell proliferation, '% divided cells'” value was found to be 3.49 ng/mL and the “EC50 of the induction of antigen-specific T cell proliferation, 'proliferation index'” value turned out to be 5.39 ng/mL.

B5: b12-FEAL×CD137-009-FEAR-A488 (bispecific antibody, not shown: large carriers)
heavy 1: QVQLVQSGAEVKKPGASVKVSCQASGYRFSNFVIHWVRQAPGQRFEWMGWINPYNGNKEFSAKFQDRVTFTADTSANTAYMELRSLRSADTAVYYCARVGPYSWDDSPQDNYYMDVWGKGTTVIVSSASTKGPSVFPLAPSSKSTSGGTAALGCLVKDYFPEPVTVSWNSGALTSGVHTFPAVLQSSGLYSLSSVVTVPSSSLGTQTYICNVNHKPSNTKVDKRVEPKSCDKTHTCPPCPAPEFEGGPSVFLFPPKPKDTLMISRTPEVTCVVVAVSHEDPEVKFNWYVDGVEVHNAKTKPREEQYNSTYRVVSVLTVLHQDWLNGKEYKCKVSNKALPAPIEKTISKAKGQPREPQVYTLPPSREEMTKNQVSLTCLVKGFYPSDIAVEWESNGQPENNYKTTPPVLDSDGSFLLYSKLTVDKSRWQQGNVFSCSVMHEALHNHYTQKSLSLSPGK
light 1: EIVLTQSPGTLSLSPGERATFSCRSSHSIRSRRVAWYQHKPGQAPRLVIHGVSNRASGISDRFSGSGSGTDFTLTITRVEPEDFALYYCQVYGASSYTFGQGTKLERK
heavy 2: QSLEESGGRLVTPGTPLTLTCTVSGFSLNDYWMSWVRQAPGKGLEWIGYIDVGGSLYYASWAKGRFTISRTSTTVDLKMTSLTTEDTATYFCARGGLTYGFDLWGPGTLVTVSSASTKGPSVFPLAPSSKSTSGGTAALGCLVKDYFPEPVTVSWNSGALTSGVHTFPAVLQSSGLYSLSSVVTVPSSSLGTQTYICNVNHKPSNTKVDKRVEPKSCDKTHTCPPCPAPEFEGGPSVFLFPPKPKDTLMISRTPEVTCVVVAVSHEDPEVKFNWYVDGVEVHNAKTKPREEQYNSTYRVVSVLTVLHQDWLNGKEYKCKVSNKALPAPIEKTISKAKGQPREPQVYTLPPSREEMTKNQVSLTCLVKGFYPSDIAVEWESNGQPENNYKTTPPVLDSDGSFFLYSRLTVDKSRWQQGNVFSCSVMHEALHNHYTQKSLSLSPGK
light 2: DIVMTQTPASVSEPVGGTVTINCQASEDISSYLAWYQQKPGQRPKRLIYGASDLASGVPSRFSASGSGTEYALTISDLESADAATYYCHYYATISGLGVAFGGGTEVVVKRTVAAPSVFIFPPSDEQLKSGTASVVCLLNNFYPREAKVQWKVDNALQSGNSQESVTEQDSKDSTYSLSSTLTLSKADYEKHKVYACEVTHQGLSSPVTKSFNRGEC
In the case of B5, in the experiment with Human CD137 [1], the binding result is “binds”.

B6: PD-L1-547-FEAR (antibody, human IgG1, lambda, V domains shown)
VH: EVQLLEPGGGLVQPGGSLRLSCEASGSTFSTYAMSWVRQAPGKGLEWVSGFSGSGGFTFYADSVRGRFTISRDSSKNTLFLQMSSLRAEDTAVYYCAIPARGYNYGSFQHWGQGTLVTVSS
VL: SYVLTQPPSVSVAPGQTARITCGGNNIGSKSVHWYQQKPGQAPVLVVYDDNDRPSGLPERFSGSNSGNTATLTISRVEAGDEADYYCQVWDSSSDHVVFGGGTKLTVLG
notes: Human IgG1 lambda with L234F, L235E, D265A and K409R
As for B6, the binding result in the experiment with Human PD-L1 is “binds”.
